The results in this text go back to publication PMC11028011.

For the experiment, the target named is neonatal Fc receptor (FcRn) protein, immobilized on a column (UniProt P55899). Kind of experiment: FcRn affinity chromatography; FcRn immobilised on an affinity column (Roche); 30 µg antibody in 20 mM MES, 140 mM NaCl pH 5.5; 10 min at 20% buffer B (20 mM Tris, 140 mM NaCl pH 8.8), then 20-100% buffer B over 80 min; 0.5 mL/min.
Sequence of UniProt P55899 (P55899 24-297): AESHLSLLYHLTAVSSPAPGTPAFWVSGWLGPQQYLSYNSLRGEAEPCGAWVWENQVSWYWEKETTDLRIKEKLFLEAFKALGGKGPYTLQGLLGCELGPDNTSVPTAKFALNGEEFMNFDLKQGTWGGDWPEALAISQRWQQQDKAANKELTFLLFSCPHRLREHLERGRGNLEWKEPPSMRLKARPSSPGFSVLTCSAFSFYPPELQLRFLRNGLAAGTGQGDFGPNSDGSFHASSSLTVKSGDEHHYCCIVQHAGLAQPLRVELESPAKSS

“Bapi (control), control variant without mutations (antibody)”: the FcRn ret. time was 46.4 min.
As for “Bapi (monospecific bapineuzumab IgG with effector function reducing mutations L234A, L235A, P329G) (antibody)”, the FcRn ret. time was 46.4 min.
As to “Bapi-Fab8D3 (bispecific bapineuzumab IgG1, knobs-into-holes, with a single-chain Fab of the TfR antibody 8D3 on the C-terminus of one heavy chain; L234A, L235A, P329G) (bispecific antibody)”, the FcRn ret. time was determined as 46.4 min.
